Laboratory results published in patent US20210324003A1.

What was measured:
MT145K gp120 monomer = assay: ELISA; set-up: unit not given beside the values
[1] = target: MT145K SOSIP.664 trimer (MT145 Q171K); assay: ELISA; set-up: unit not given beside the values
[2] = target: CRF250 SOSIP trimer (HIV-1 (subtype AG)); assay: method not stated

Substance | EC50 (MT145K gp120 monomer) | EC50 [1] | Kd [2]
CH01 | 10 ? | 0.187 ? | 
CH01 UCA BCR (antibody) |  |  | 100 nM
PG9 | 0.792 ? |  | 
